{"source": "paper doi:10.1101/068262", "about": "(bioRxiv, 2016)", "molecules": {"B1": {"name": "His6-tagged wild-type AFF4^ELLBow (AFF4 301-351) (peptide)", "chain": "PSQPLDASASGDVSCVDEILKEMTHSWPPPLTAIHTPCKTEPSKFPFPTKE"}, "B2": {"name": "AFF4^ELLBow E322H (301-351) (peptide)", "chain": "B1 chain with E22H"}, "B3": {"name": "AFF4^ELLBow F345D/F347D (301-351) (peptide)", "chain": "B1 chain with F45D, F47D"}, "B4": {"name": "AFF4^ELLBow I319D/L320D (301-351) (peptide)", "chain": "B1 chain with I19D, L20D"}, "B5": {"name": "AFF4^ELLBow I319D/L320D/M323D (301-351) (peptide)", "chain": "B1 chain with I19D, L20D, M23D"}, "B6": {"name": "AFF4^ELLBow I334D (301-351) (peptide)", "chain": "B1 chain with I34D"}, "B7": {"name": "AFF4^ELLBow L331D (301-351) (peptide)", "chain": "B1 chain with L31D"}, "B8": {"name": "AFF4^ELLBow M323D (301-351) (peptide)", "chain": "B1 chain with M23D"}, "B9": {"name": "AFF4^ELLBow P342D (301-351) (peptide)", "chain": "B1 chain with P42D"}, "B10": {"name": "AFF4^ELLBow W327D (301-351) (peptide)", "chain": "B1 chain with W27D"}, "B11": {"name": "AFF4^ELLBow double 328-329 Pro-Gly mutant (301-351) (peptide)", "chain": "B1 chain with P28G, P29G"}, "B12": {"name": "fluorescently labeled AFF1 peptide (residues 358-390) (peptide)", "peptide": "EILKEMTHSWPPPLTAIHTPSTAEPSKFPFPTK", "modifications": "also: fluorescent label, site not given here"}}, "key": {"[1]": {"target": "ELL2^Occ–(Gly-Ser)4-AFF4^ELLBow fusion (UniProt Q9UHB7)", "assay": "SEC"}, "[2]": {"target": "Sumo-ELL2(519-640) (human) (UniProt O00472)", "sequence (O00472 519-640)": "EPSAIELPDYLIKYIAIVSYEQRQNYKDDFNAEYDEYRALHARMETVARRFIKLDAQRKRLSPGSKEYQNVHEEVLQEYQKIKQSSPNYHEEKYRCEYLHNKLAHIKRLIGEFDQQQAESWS", "assay": "fluorescence polarisation"}, "[3]": {"target": "Sumo-ELL2(519-640) (human, UniProt O00472 519-640)", "sequence (O00472 519-640)": "as above", "assay": "fluorescence polarisation"}, "[4]": {"target": "GST-ELL2 (519-640) N619A (human, UniProt O00472 519-640, N619A)", "sequence (O00472 519-640 N619A)": "as the sequence (O00472 519-640) above, with N101A counted along it", "assay": "pull-down"}, "[5]": {"target": "GST-ELL2 (519-640) H559E (human, UniProt O00472 519-640, H559E)", "sequence (O00472 519-640 H559E)": "as the sequence (O00472 519-640) above, with H41E counted along it", "assay": "pull-down"}, "[6]": {"target": "GST-ELL2 (519-640) K625T (human, UniProt O00472 519-640, K625T)", "sequence (O00472 519-640 K625T)": "as the sequence (O00472 519-640) above, with K107T counted along it", "assay": "pull-down"}, "[7]": {"target": "GST-ELL2 (519-640) H608E (human, UniProt O00472 519-640, H608E)", "sequence (O00472 519-640 H608E)": "as the sequence (O00472 519-640) above, with H90E counted along it", "assay": "pull-down"}}, "note": "Positions count from the first letter of the chain named. Names and notes keep the numbering of the source. No end group written: not given here."}
{"molecule": "ELL2^Occ–(Gly-Ser)4-AFF4^ELLBow fusion (from UniProt Q9UHB7 301-351)", "values": [{"measurement": "stoichiometry N", "setting": "[1]", "result": 2}]}
{"molecule": "AFF4^ELLBow α1 mutant D317P/E317P (301-351) (from UniProt Q9UHB7 301-351) (peptide)", "values": [{"measurement": "fold reduction of affinity against wild type", "setting": "[2]", "result": 10, "unit": "fold"}]}
{"molecule": "B1", "values": [{"measurement": "Kd", "setting": "[3]", "result": 86, "unit": "nM"}, {"measurement": "binding result", "setting": "[4]", "result": "binds"}, {"measurement": "binding result", "setting": "[5]", "result": "binds"}, {"measurement": "binding result", "setting": "[6]", "result": "binds"}, {"measurement": "binding result", "setting": "[7]", "result": "binds"}]}
{"molecule": "B2", "values": [{"measurement": "fold reduction of affinity against wild type", "setting": "[3]", "result": "< 2", "unit": "fold"}]}
{"molecule": "B3", "values": [{"measurement": "fold reduction of affinity against wild type", "setting": "[3]", "result": "< 2", "unit": "fold"}]}
{"molecule": "B4", "values": [{"measurement": "fold reduction of affinity against wild type", "setting": "[3]", "result": "> 25", "unit": "fold"}]}
{"molecule": "B5", "values": [{"measurement": "Kd", "setting": "[3]", "result": "> 3000", "unit": "nM"}]}
{"molecule": "B6", "values": [{"measurement": "fold reduction of affinity against wild type", "setting": "[3]", "result": 8, "unit": "fold"}]}
{"molecule": "B7", "values": [{"measurement": "fold reduction of affinity against wild type", "setting": "[3]", "result": "~20", "unit": "fold"}]}
{"molecule": "B8", "values": [{"measurement": "fold reduction of affinity against wild type", "setting": "[3]", "result": "> 25", "unit": "fold"}]}
{"molecule": "B9", "values": [{"measurement": "fold reduction of affinity against wild type", "setting": "[3]", "result": 3, "unit": "fold"}]}
{"molecule": "B10", "values": [{"measurement": "fold reduction of affinity against wild type", "setting": "[3]", "result": 4, "unit": "fold"}]}
{"molecule": "B11", "values": [{"measurement": "fold reduction of affinity against wild type", "setting": "[3]", "result": 3, "unit": "fold"}]}
{"molecule": "B12", "values": [{"measurement": "binding result", "setting": "[3]", "result": "binds"}]}
